Measurements reported in patent publication US20230120167A1 (AFFILOGIC, published 2023).

Assays:
[1] = target: T1, HSP110 (human, UniProt Q92598 1-858, limits assumed)
T1 construct: also called HSPH1; Hsp105

[2] = target: T2, human PD-L1 (human, UniProt Q9NZQ7 19-238, limits assumed); experiment: Surface Plasmon Resonance
T2 construct: also called PD-1 ligand 1; CD274

[3] = target: T3, mouse PD-L1 (mouse, UniProt Q9EP73 19-238, limits assumed); experiment: Surface Plasmon Resonance
T3 construct: also called murine PDL1
T3 sequence (Q9EP73 19-238 limits assumed): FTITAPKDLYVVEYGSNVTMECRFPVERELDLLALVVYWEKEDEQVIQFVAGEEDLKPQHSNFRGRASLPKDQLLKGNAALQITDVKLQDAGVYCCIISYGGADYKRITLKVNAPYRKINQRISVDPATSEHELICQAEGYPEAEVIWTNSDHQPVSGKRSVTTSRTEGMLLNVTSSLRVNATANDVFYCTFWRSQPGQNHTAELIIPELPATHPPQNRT

T1 sequence (Q92598 whole entry): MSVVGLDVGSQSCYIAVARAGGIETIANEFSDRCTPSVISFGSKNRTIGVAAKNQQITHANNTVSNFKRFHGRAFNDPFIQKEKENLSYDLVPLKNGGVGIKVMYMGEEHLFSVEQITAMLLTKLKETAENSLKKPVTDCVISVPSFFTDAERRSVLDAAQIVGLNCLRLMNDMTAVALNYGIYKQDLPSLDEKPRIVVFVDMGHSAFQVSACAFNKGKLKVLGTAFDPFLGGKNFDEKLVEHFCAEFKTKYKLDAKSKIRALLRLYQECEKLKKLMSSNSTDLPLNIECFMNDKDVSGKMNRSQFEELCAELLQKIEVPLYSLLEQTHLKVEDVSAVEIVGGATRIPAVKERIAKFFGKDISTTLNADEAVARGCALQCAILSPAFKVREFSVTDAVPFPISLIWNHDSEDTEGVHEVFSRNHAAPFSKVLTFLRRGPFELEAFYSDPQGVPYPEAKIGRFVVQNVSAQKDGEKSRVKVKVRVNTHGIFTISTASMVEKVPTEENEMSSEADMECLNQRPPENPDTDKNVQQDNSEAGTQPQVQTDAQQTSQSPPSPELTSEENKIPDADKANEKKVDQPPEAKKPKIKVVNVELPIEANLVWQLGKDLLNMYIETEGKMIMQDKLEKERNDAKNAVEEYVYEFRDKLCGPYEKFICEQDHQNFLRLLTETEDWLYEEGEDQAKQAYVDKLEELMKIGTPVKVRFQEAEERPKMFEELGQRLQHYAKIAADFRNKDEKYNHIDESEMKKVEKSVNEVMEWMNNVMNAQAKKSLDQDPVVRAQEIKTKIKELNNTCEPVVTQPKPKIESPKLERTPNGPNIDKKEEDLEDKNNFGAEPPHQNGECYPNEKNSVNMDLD
T2 sequence (Q9NZQ7 19-238 limits assumed): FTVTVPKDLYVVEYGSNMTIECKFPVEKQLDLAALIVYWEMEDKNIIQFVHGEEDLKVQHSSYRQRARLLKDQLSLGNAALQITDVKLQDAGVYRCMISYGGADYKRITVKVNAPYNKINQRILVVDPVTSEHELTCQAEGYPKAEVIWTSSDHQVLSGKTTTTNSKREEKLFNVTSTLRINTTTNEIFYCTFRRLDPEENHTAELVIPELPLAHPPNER

Binder	Kd [1]	Kd [2]	Kd [3]
A-C2 (Sac7d variant binding to HSP110, SEQ ID NO: 27) (designed binder, also called NF1; anti-HSP110 variant) MVKVKFMWRGEEKEVDTSKIWDVWRSGKTVYFHYDDNGKMGQGKVHEKDAPKELLDMLARAEREKK	< 1 nM		
B11 (Sac7d variant binding to PD-L1, SEQ ID NO: 21) (designed binder, also called NF2; NF-B11) MVKVKFVIGGEEKEVDTSKIKTVRRIGKYVLFKYDDNGKTGMGLVSEKDAPKELLDMLARAEREKK		~15 nM	~3.2 nM
